Patent US10012655B2, “Method for quantitating total HMGB1 protein in biological samples” (INSTITUT PASTEUR, priority 2008, dated 2018)

Tested on: RAGE
Test: Surface expression of RAGE on DCs (flow cytometry)
Type: cell-based, human
Settings: uninfected iDCs incubated with 1 μg/ml
Experimental: FIG. 3 (a)-(e). aNK-dependent maturation of HIV-1-infected iDCs is mediated by HMGB1 and involves RAGE. (a) Left panel: iDCs were cultured for 24 h either alone or with aNK cells, in the presence of blocking anti-HMGB1 antibodies (10 μg/ml) or glycyrrhizin (10 μg/ml). The maturation status of DCs was determined by flow cytometry with CD86 and HLA-DR—specific antibodies. Right panel: same experiment, but performed with HIV-1 infected iDCs. Data represent mean±sd of at least three independent experiments, and statistical comparisons were made with the non parametric Mann-Whitney test. * p<0.05. (b) iDC (10^6 cells/ml) were cultured for 48 h with increasing concentrations (1-10 μg/ml) of rh-HMGB1. Cells were then stained with anti-CD86, -HLA-DR, -CD80, -CD83, DC-LAMP and -CD40 antibodies and analyzed by flow cytometry. (c) Influence of rh-HMGB1 on cytokine and chemokine production (determined by MAP) by DCs. iDCs (10^6 cells/ml) were incubated for 48 h in medium or in presence of rh-HMGB1 (1 or 10 μg/ml). As a positive control, iDCs were stimulated with LPS (DC0). […] (e) iDC, DC0, uninfected or HIV-1-infected iDC cocultured for 24 h with aNK cells, were incubated with rh-HMGB1 (1 μg/ml) and subsequently stained with anti-RAGE antibodies and analyzed by flow cytometry. […]

B1: rh-HMGB1: recombinant human HMGB1 protein (R&D Systems) (protein, UniProt P09429 1-215, looked up)
High mobility group protein B1: MGKGDPKKPRGKMSSYAFFVQTCREEHKKKHPDASVNFSEFSKKCSERWKTMSAKEKGKFEDMAKADKARYEREMKTYIPPKGETKKKFKDPNAPKRPPSAFFLFCSEYRPKIKGEHPGLSIGDVAKKLGEMWNNTAADDKQPYEKKAAKLKEKYEKDIAAYRAKGKPDAAKKGVVKAEKSKKKKEEEEDEEDEEDEEEEEDEEDEDEEEDDDDE
RAGE surface expression: down-regulation of RAGE was observed
